The source of these data is patent US20230303685A1 (ELECTRA THERAPEUTICS, published 2023).

The target of one assay is T1, Human SIRPβ1.
T1 construct: also called human SIRPβ1 extracellular domain, plate-coated
T1 chain: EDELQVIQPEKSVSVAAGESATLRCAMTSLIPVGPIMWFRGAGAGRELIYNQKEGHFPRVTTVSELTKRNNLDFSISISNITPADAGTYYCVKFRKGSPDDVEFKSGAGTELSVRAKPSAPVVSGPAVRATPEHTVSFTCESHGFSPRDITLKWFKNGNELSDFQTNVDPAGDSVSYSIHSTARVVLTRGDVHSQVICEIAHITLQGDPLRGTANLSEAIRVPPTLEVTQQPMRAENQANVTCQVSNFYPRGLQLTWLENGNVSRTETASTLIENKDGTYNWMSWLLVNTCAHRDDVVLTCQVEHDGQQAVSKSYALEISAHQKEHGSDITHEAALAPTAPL
In words: ELISA, extracellular domain coated at 2 µg/mL, undiluted hybridoma supernatant, anti-rat or anti-mouse IgG, chemiluminescence. On the procedure:
Briefly, 2 μg/mL of the extracellular domain of each of the SIRPs was coated onto high protein-binding plates and blocked. Supernatants were added undiluted to coated plates. The antibodies were detected by anti-rat or anti-mouse IgG antibodies and a chemiluminescent substrate. […] The data depict the relative luminescence units read by a plate-reader capable of detecting chemiluminescence.
For orientation: ELISA stands for enzyme-linked immunosorbent assay.

The target in assay [1] is T2, human SIRPα V1 extracellular domain, monomeric (human, UniProt P78324 31-373).
T2 construct: also called hSIRPα V1
Put plainly: ELISA, extracellular domain coated at 1 µg/mL, purified antibody titrated, anti-rat IgG, chemiluminescence. As for the experimental part: Select SIRP antibodies were purified by Protein G from hybridoma supernatants and analyzed in a titration via ELISA. Briefly, 1 μg/mL of extracellular domain SIRPα was coated onto high protein-binding plates and blocked. Purified antibodies were added in a titration to the coated plates. The antibodies were detected by an anti-rat IgG antibody and a chemiluminescent substrate.

For a further assay, the target named is T3, Cynomolgus Monkey SIRPγ (Macaca fascicularis).
T3 construct: extracellular domain; also called cyno SIRPγ extracellular domain, plate-coated
Put plainly: ELISA, extracellular domain coated at 2 µg/mL, purified antibody titrated, anti-rat or anti-mouse IgG, chemiluminescence. On the procedure:
(§1) Select SIRP antibodies were purified by Protein G from hybridoma supernatants and analyzed in a titration via ELISA. Briefly, 2 μg/mL of extracellular domain of each of the SIRPs was coated onto high protein-binding plates and blocked. Purified antibodies were added in a titration to the coated plates. The antibodies were detected by an anti-rat IgG or an anti-mouse IgG antibody and a chemiluminescent substrate.

A further assay addresses T4, Human SIRPγ.
T4 construct: also called human SIRPγ extracellular domain, plate-coated
T4 chain: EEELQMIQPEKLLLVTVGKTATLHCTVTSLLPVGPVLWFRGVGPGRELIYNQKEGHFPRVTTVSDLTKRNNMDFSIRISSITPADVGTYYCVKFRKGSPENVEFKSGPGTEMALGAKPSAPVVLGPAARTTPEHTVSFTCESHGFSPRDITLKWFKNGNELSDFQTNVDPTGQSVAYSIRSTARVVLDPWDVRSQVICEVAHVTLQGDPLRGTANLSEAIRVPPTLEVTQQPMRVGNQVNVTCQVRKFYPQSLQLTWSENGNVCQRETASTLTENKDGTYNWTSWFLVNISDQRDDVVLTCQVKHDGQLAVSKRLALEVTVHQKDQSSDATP
The description is as above. On the procedure:
as §1

In assay [2] the target is T2, human SIRPα V1 extracellular domain, …. Described as above. As for the experimental part: as §1
The target of the next assay is T5, Human SIRPγ CHO.
T5 construct: also called human SIRPγ on CHO cells
T5 chain: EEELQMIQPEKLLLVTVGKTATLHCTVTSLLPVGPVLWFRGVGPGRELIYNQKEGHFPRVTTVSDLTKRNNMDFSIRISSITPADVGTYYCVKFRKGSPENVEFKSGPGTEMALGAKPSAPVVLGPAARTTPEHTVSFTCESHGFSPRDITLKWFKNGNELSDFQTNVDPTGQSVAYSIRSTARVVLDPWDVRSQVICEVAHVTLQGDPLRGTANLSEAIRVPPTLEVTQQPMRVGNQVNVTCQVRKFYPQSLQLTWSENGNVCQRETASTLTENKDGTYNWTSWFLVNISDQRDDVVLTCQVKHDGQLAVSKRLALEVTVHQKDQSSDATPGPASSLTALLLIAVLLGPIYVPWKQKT
Put plainly: flow cytometry, stably transfected CHO cells, antibody titrated, labelled anti-rat or anti-mouse IgG, MFI. As for the experimental part:
(§2) Selected antibodies were tested for binding to stably transfected human SIRPα, SIRPβ1 (co-transfected with DAP12), or SIRPγ Chinese hamster ovary (CHO) cells via flow cytometry. A titration of SIRP antibodies was added to the cells and detected using a fluorescently labelled secondary antibody. Graph depicts the median fluorescence intensity (MFI) at each concentration.
On the technique in general: A flow cytometer gives signals particle by particle.

For another assay, the target named is T6, Human SIRPβ1/DAP12 CHO.
T6 construct: also called human SIRPβ1 on CHO cells co-transfected with DAP12; copies: 1 + 2
T6 sequence (DAP12, as listed by the source limits assumed): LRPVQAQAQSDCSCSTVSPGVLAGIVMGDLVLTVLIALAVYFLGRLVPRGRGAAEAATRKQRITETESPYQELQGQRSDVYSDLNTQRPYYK
The description is as above. On the procedure: as §2

Assay [3] concerns the target T7, human SIRPα V1-His monomer (human, UniProt P78324 31-373, limits assumed).
T7 construct: 'SIRP-His monomer protein' of the Octet assay; also called SIRP-His; not shown: His tag
In words: BLI (Octet); antibody on anti-mouse IgG capture tip, SIRP-His monomer at 100, 33.3, 11.1 nM, 1:1 fit, mean KD. The essentials: (§3)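 Rat/mouse-Fc antibodies captured on anti-mouse IgG tips; human-Fc antibodies cleaved with gingipain K to monomeric F(ab′), biotinylated, loaded on streptavidin tips. SIRP-His association then wash-buffer dissociation; 1:1 model fitted per concentration, KD as kdis/kon averaged over concentrations.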
For orientation: BLI is a label-free optical method that tracks binding on a fibre tip over time.

The target in assay [4] is T8, human SIRPγ-His monomer (human).
T8 construct: 'SIRP-His monomer protein' of the Octet assay; also called SIRP-His; not shown: His tag
Described as above. The essentials: as §3

For assay [5], the target named is T9, Human SIRPγ conjugated to an Fc region (human).
T9 construct: also called SIRPγ-Fc; SIRP-Fc; not shown: Fc region
T9 sequence (Q9P1W8 whole entry): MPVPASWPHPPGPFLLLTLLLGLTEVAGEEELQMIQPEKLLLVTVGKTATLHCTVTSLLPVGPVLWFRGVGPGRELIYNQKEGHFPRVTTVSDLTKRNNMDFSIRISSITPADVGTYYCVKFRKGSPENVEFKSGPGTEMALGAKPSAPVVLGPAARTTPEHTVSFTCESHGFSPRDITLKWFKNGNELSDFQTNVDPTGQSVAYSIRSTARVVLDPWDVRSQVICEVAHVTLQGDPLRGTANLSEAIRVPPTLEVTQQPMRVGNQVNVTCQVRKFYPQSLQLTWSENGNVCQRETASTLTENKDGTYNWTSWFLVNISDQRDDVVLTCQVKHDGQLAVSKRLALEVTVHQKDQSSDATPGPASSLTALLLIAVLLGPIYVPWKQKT
Put plainly: BLI blocking; 200 nM antibody pre-incubated with 20 nM SIRPγ-Fc, binding to immobilised CD47-His (competitor), % of response of SIRPγ-Fc alone.

Assay [6] concerns the target T10, cynomolgus monkey SIRPα extracellular domain, monomeric (cynomolgus monkey, UniProt A0A2K5VYQ9 31-372).
T10 construct: extracellular domain; also called Cyno SIRPα
In words: SPR (Biacore); antibody captured by anti-IgG on chip, monomeric SIRPα extracellular domain as analyte, 1:1 model.

For assay [7], the target named is T2, human SIRPα V1 extracellular domain, …. Described as above.
The target of a further assay is T11, Cynomolgus Monkey SIRPβ1 (Macaca fascicularis).
T11 construct: extracellular domain; also called cyno SIRPβ1 extracellular domain, plate-coated
In words: ELISA, extracellular domain coated at 2 µg/mL, purified antibody titrated, anti-rat or anti-mouse IgG, chemiluminescence. As for the experimental part: as §1

The target of assay [8] is T10, cynomolgus monkey SIRPα extracellular …. Described as above. On the procedure:
as §1

Assay [9] has as its target T12, human SIRPβ1-His monomer (human, UniProt O00241 30-371).
T12 construct: 'SIRP-His monomer protein' of the Octet assay; also called SIRP-His; not shown: His tag
Put plainly: BLI (Octet); antibody on anti-mouse IgG capture tip, SIRP-His monomer at 100, 33.3, 11.1 nM, 1:1 fit, mean KD. The method in brief:
as §3

In assay [10] the target is T12, human SIRPβ1-His monomer. Put plainly: BLI (Octet); biotinylated monomeric F(ab') on streptavidin tip, SIRP-His monomer at 100, 33.3, 11.1 nM, 1:1 fit, mean KD. On the procedure:
(§4) Select SIRP antibodies were tested for their affinities to human SIRPα, SIRPβ1, and SIRPγ using a biolayer interferometry (BLI) Octet system (Pall ForteBio). Each SIRP antibody with rat or mouse Fc was immobilized on a biosensor tip by an anti-mouse IgG capture (AMC). Antibodies with human Fc were digested with gingipain K enzyme to yield monomeric F(ab′), biotinylated, then coated onto streptavidin biosensors. […] The biosensors were then exposed to wash buffer to measure off-rate kinetics. The resulting kinetic data were analyzed and fitted using a 1:1 binding model with kₒₙ and kdis fitted separately at each SIRP-His protein concentration. KD affinities were calculated as kdis to kₒₙ ratio at each concentration of SIRP-His and averaged.

Assay [11] concerns the target T7, human SIRPα V1-His monomer. The description is as above. On the procedure: as §4
The target of assay [12] is T8, human SIRPγ-His monomer. The assay is described as above. On the procedure: as §4

B1: Antibody 4 (antibody, V domains shown)
VH: QVQLQESGPGLLKPSETLSLTCAVSDYSISSGYYWGWIRQPPGKGLEWIGSIYHSGNTYYNPSLKSRVTILVDTSKNQFSLKLSSVTAADTAVYYCARDKCSTTTCSFDYWGQGTLVTVSS
VL: DIQMTQSPSSLSASVGDRVTITCQASQDFSNYLNWYQQKPGKAPKLLIYAASNLETGVPSRFSGSGSGTDFTFTISSLQPEDIAVYYCQQYDNLPYTFGQGTKLEIK
notes: Human variable region, rat IgG2b Fc; from hybridoma
Consider B1, for which the binding result in the assay with Human SIRPβ1 and in the assay with Human SIRPβ1/DAP12 CHO was “binds” in each case. For the same molecule, the EC50 (read off the curve) (commonly the concentration giving half of the maximal effect) in assay [1] was approximately 0.05 µg/mL; with Cynomolgus Monkey SIRPγ, approximately 0.07 µg/mL; with Human SIRPγ, approximately 0.05 µg/mL; in assay [2], approximately 0.06 µg/mL; in the assay with Human SIRPγ CHO, approximately 0.1 µg/mL. Moreover, the equilibrium dissociation constant (Kd) – broadly, the equilibrium constant for the complex coming apart – in assay [3] worked out at 46.1 nM; with human SIRPγ-His monomer [4], 24.1 nM. Also, the “SIRPγ-CD47 Response (%)” value in assay [5] is -6.94%.

B2: Antibody 1 (antibody, V domains shown)
VH: QVQLQESGPGLVKPSGTLSLTCAVSGGSISSSNWWSWVRQPPGKGLEWIGEIYHSGSTNYNPSLKSRVTISVDKSKNQFSLKLSSVTAADTAVYYCARRGIWFGVGPWGQGTLVTVSS
VL: DIVMTQSPLSLPVTPGEPASISCRSSQSLLHGNGFNYLDWYLQKPGQSPQLLIYLGSNRASGVPDRFTGSGSGTDFTLKISRVEAEDVGVYYCMQGLQTPRTFGQGTKVEIK
notes: as for B1
Consider B2, for which the equilibrium dissociation constant (Kd) in assay [6] was determined as 581 nM; in [7] it was 579 nM; with human SIRPβ1-His monomer [9], 3520 nM; in [3], 37.1 nM; with human SIRPγ-His monomer [4] it was 973 nM. The “EC50 (read off the curve)” value with Cynomolgus Monkey SIRPβ1 was approximately 0.2 µg/mL; in assay [8] it was approximately 0.1 µg/mL; with Human SIRPγ it was approximately 0.2 µg/mL; in assay [2], approximately 0.1 µg/mL. The “SIRPγ-CD47 Response (%)” value in assay [5] was found to be 110%.

B3: Antibody 28, monomeric F(ab') (gingipain K digest, biotinylated) (Fab, V domains shown)
VH: QVQLQESGPGLVKPSGTLSLTCAVSGGSISSSNWWSWVRQPPGKGLEWIGEIYHSGSTNYNPSLKSRVTISVDKSKNQFSLKLSSVTAADTAVYYCARRGIWFGVGPWGQGTLVTVSS
VL: DIVMTQSPLSLPVTPGEPASISCRSSQSLLHGNGFNYLDWYLQKPGQSPQLLIYLGSNRASGVPDRFTGSGSGTDFTLKISRVEAEDVGVYYCMQGLQTPRTFGQGTKVEIK
modifications: biotinylated (site not stated)
B3: the Kd amounted to 555 nM in the assay with human SIRPβ1-His monomer [10], 14.9 nM in assay [11] and 1340 nM with human SIRPγ-His monomer [12].
